These results are taken from patent US11932673B2, “Sodium channel inhibitors” (priority 2017, dated 2024).

The target in one series is human Nav1.7 (Homo sapiens, UniProt Q15858). Briefly: QPatch patch-clamp on CHO cells stably expressing human Nav1.7, four-point concentration-response (Example 21). In kind it is cell-based. The settings on record: every 15-minute application of equivalent concentrations. The protocol:
The effect of these KnotBodies on cells expressing human Nav1.7 (huNav1.7) channel was then assessed using QPatch automated patch-clamp platform (Sophion). For the testing of Nav1.7 ion channel currents, CHO cells stably expressing human Nav1.7 (GenBank accession number NM 002977; cell line catalogue number CT6003, Charles River Discovery, Cleveland, USA) were subjected to the QPatch electrophysiology assay in the presence or absence of the KnotBody fusions or the antibody isotypes (negative controls). Internal and external physiological solutions were freshly prepared prior to the assay. […] To these measured control currents four ascending concentrations (0.37, 1.1, 3.3 and 10 μM) of KnotBody or parental antibody isotypes (control molecules) were applied to the external bathing solution containing 0.1% BSA. […] The elicited, maximum outward current values measured during the −10 mV activating step for each solution period (a control, baseline level of current was determined at 15 minutes after application of the control external recording solution and a test level of current was determined after 15 minutes of application of each concentration of KnotBody or its isotype control) and average inhibition was determined. […] From these concentration-response curves IC50 values were calculated.

The subject of series [1] is in vitro rat BBB model system. The format is in vitro ADME. To be noted: Fab format, oligoclonal mixes of 3 Fabs at final 2 μM, controls 1 μM, blood side to brain side, 37° C. How it is done: In order to assess the ability of these KnotBodies to cross the BBB, a ready to use in vitro rat BBB model system (Pharmacocell, Cat. No. RBT-24H) was used. In this model system rat brain endothelial cells were co-cultured with pericytes and astrocytes to mimic the in vivo BBB anatomy (Nakagawa, S. et al. (2009) Neurochem. Int. 54, 253-263). The in vitro rat BBB kit was cultured according to manufacturer's instructions and transendothelial electrical resistance (TEER) was measured prior to testing of KnotBodies to verify the integrity of the barrier. […] 21 KnotBody Fabs were tested for their ability to cross the in vitro BBB model system. […] The parent KnotBody KB_A12 was used as a negative control. Both positive and negative controls were expressed and purified in the Fab format as described above. […] The concentration of transcytosed Fabs in the lower chamber (referred as brain side) was determined using a sandwich ELISA. In this ELISA, Fabs were captured using an anti-CH1 antibody (provided by Hybridoma Reagent Laboratories) and detected using rabbit anti-human IgG Kappa light chain antibody (Abcam, Cat. No. ab195576) or anti-human IgG Lambda light chain antibody (Abcam, Cat. No. ab124719) followed by europium conjugated anti-rabbit antibody (Perkin Elmer, Cat. No. AD0105). […]

Chain of human Nav1.7 (Q15858 other isoform, or with tags, fused parts or gaps): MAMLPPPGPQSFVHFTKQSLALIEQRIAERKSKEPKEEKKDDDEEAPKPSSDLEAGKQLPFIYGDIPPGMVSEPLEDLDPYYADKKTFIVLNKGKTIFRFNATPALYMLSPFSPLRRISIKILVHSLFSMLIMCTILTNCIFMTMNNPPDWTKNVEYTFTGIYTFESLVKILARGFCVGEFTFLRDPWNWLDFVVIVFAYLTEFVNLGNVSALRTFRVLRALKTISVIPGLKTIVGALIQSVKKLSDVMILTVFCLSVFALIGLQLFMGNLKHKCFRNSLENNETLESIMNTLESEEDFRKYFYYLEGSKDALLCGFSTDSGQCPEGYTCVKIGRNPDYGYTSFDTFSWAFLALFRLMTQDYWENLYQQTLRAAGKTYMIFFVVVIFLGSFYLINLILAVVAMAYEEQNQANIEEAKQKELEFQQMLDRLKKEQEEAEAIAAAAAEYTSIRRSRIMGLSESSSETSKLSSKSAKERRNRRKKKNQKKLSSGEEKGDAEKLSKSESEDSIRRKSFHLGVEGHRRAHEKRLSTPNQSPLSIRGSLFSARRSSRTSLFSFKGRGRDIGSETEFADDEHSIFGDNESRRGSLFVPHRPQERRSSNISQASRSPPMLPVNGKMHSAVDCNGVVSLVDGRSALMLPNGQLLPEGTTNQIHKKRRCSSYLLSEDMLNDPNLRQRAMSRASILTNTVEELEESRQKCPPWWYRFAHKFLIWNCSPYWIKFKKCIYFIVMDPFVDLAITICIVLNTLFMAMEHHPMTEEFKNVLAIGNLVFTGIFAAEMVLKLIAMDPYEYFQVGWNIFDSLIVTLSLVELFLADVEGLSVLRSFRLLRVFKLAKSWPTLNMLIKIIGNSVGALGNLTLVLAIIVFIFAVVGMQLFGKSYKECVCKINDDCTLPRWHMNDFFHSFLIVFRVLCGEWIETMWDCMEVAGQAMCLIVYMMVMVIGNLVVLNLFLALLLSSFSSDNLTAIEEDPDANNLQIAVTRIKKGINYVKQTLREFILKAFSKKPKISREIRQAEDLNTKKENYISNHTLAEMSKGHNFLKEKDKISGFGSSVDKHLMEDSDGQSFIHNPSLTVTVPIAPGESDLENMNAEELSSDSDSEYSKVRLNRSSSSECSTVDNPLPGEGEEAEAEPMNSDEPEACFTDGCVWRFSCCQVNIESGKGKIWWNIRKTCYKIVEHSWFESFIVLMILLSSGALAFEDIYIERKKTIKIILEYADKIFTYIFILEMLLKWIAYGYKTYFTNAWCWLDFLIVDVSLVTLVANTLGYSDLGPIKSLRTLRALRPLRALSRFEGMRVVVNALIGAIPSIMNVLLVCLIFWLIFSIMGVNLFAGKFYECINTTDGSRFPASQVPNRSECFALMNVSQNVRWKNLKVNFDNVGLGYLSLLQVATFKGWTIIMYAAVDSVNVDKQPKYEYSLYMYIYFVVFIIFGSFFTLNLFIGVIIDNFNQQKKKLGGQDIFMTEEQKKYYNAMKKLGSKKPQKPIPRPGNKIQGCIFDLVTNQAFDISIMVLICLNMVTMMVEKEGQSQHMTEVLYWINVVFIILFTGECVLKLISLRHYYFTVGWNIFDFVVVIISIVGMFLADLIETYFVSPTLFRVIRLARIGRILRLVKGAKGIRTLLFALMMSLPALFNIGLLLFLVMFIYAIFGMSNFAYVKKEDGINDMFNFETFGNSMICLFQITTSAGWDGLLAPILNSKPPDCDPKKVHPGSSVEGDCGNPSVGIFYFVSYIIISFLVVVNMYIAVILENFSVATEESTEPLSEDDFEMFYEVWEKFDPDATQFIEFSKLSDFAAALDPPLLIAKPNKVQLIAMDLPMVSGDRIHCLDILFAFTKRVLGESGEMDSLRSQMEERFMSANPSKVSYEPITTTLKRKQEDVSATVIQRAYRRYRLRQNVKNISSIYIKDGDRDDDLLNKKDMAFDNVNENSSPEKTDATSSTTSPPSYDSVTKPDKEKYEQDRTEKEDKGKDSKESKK

B1: KB_A12: EETI-II VL CDR2 KnotBody, D1A12 VH, VL SEQ ID NO: 105/373; parental/isotype control (antibody, V domains shown)
VH: EVQLVESGGGLVRPGGSLRLSCAASGFTFSSYAMSWVRQAPGKGLEWVSAISGSGGSTYYADSVKGRFTISRDNTKNSLYLQMTSLRADDTAFYYCVKDFGPGYGTGWFDYWGPGTLVTVSS
VL: QSVLTQPPSVSEAPRQRVTITCSGSSSNIGNNAVNWYQQLPGKAPKLLIYAAGRCPRILMRCKQDSDCLAGCVCGPNGFCGANSGVSDRFSAAKSGTSASLAINGLRSEDEADYYCAAWDDSLNGYVFGTGTKLTVLG
Take B1: the cumulative current loss in the series with human Nav1.7 is given as roughly 5%. In series [1], the “% transcytosis after 6 h” value came to 0.1%.
